Laboratory results from article PMC3433420, “Comprehensive Binary Interaction Mapping of SH2 Domains via Fluorescence Polarization Reveals Novel Functional Diversification of ErbB Receptors” (PLoS ONE, 2012).
Non-standard residues stand in square brackets, D forms with d. No end group written: not given here. pY = N[C@@H](Cc1ccc(OP(=O)(O)O)cc1)C(=O)O; rhodamine = not defined here

B1: ErbB4pY1208 phosphopeptide, rhodamine-labelled (peptide)
peptide: rhodamine-NEPL[pY]LNTFANTD
modifications: reading uncertain
notes: human ErbB4 around Tyr1208; the labelled form stood in the FP saturation assay behind Ki (exp FP); source: synthetic peptide
B2: ErbB3pY1222 phosphopeptide, unlabeled competitor (peptide)
peptide: EELG[pY]EYMDVGSD
notes: human ErbB3 around Tyr1222; source: synthetic peptide

Experiments:
GRB2 SH2 domain = molecular target: T1, GRB2 SH2 domain (human, UniProt P62993 60-152); assay: fluorescence polarisation; saturation binding in solution: rhodamine peptide fixed at 10 nM, protein titrated 0.002-10 uM, 20 min at room temperature; assay buffer 20 mM HEPES, 100 mM KCl, 0.1% Tween-20, 5 mM DTT, pH 7.8; apparent KD; conditions: both partners purified
T1 construct: GRB2, human; source: bacterial expression, purified
T1 sequence (P62993 60-152): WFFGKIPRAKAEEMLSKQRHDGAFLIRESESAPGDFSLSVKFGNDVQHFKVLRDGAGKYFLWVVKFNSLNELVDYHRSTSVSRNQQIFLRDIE

SRC SH2 domain = molecular target: T2, SRC SH2 domain (human, UniProt P12931-1 151-248); assay: fluorescence polarisation; competition: rhodamine peptide 10 nM, protein at four times its KD, unlabeled competitor peptide in 11 serial 1:3 dilutions; Ki from IC50, one-site model; conditions: both partners purified
T2 construct: SRC, human; also called c-Src; source: bacterial expression, purified

Row | Binder | Kd (GRB2 SH2 domain) | Ki (SRC SH2 domain)
1 | B1 | 1460 nM | –
2 | B2 | – | 2360 nM
